From patent publication US20190338035A1

Columns and labels:
[1] = biological target: WT H3.1 26-35 peptide/HLA-A*02:01 complex on T2 cells (human); assay: flow cytometry, BB7.2 staining of T2 cells
[2] = biological target: HLA-A*02:01 on T2 cells without peptide loading (human); assay: flow cytometry, BB7.2 staining of T2 cells
[3] = biological target: control peptide mixture P20/HLA-A*02:01 complexes on T2 cells (human); assay: flow cytometry, BB7.2 staining of T2 cells
[4] = biological target: WT H3.3 26-35 peptide/HLA-A*02:01 complex on T2 cells (human); assay: flow cytometry, BB7.2 staining of T2 cells
[5] = biological target: mutant histone K27M-H3.1 26-35 peptide/HLA-A*02:01 complex on T2 cells (human); assay: flow cytometry, BB7.2 staining of T2 cells
[6] = biological target: mutant histone K27M-H3.3 26-35 peptide/HLA-A*02:01 complex on T2 cells (human); assay: flow cytometry, BB7.2 staining of T2 cells
[7] = biological target: WT H3.1 26-35 peptide/HLA-A*02:01 complex on T2 cells (human); assay: flow cytometry on T2 cells, secondary antibody only, no phage (background control)
[8] = biological target: HLA-A*02:01 on T2 cells without peptide loading (human); assay: as above
[9] = biological target: control peptide mixture P20/HLA-A*02:01 complexes on T2 cells (human); assay: as above
[10] = biological target: WT H3.3 26-35 peptide/HLA-A*02:01 complex on T2 cells (human); assay: as above
[11] = biological target: mutant histone K27M-H3.1 26-35 peptide/HLA-A*02:01 complex on T2 cells (human); assay: as above
[12] = biological target: mutant histone K27M-H3.3 26-35 peptide/HLA-A*02:01 complex on T2 cells (human); assay: as above
[13] = biological target: WT H3.1 26-35 peptide/HLA-A*02:01 complex on T2 cells (human); assay: flow cytometry on T2 cells, anti-M13 + PE anti-mouse IgG, no phage (background control)
[14] = biological target: HLA-A*02:01 on T2 cells without peptide loading (human); assay: as above
[15] = biological target: control peptide mixture P20/HLA-A*02:01 complexes on T2 cells (human); assay: as above
[16] = biological target: WT H3.3 26-35 peptide/HLA-A*02:01 complex on T2 cells (human); assay: as above
[17] = biological target: mutant histone K27M-H3.1 26-35 peptide/HLA-A*02:01 complex on T2 cells (human); assay: as above
[18] = biological target: mutant histone K27M-H3.3 26-35 peptide/HLA-A*02:01 complex on T2 cells (human); assay: as above
[19] = biological target: WT H3.1 26-35 peptide/HLA-A*02:01 complex on T2 cells (human); assay: flow cytometry, phage on T2 cells, anti-M13 + PE anti-mouse IgG
[20] = biological target: HLA-A*02:01 on T2 cells without peptide loading (human); assay: as above
[21] = biological target: control peptide mixture P20/HLA-A*02:01 complexes on T2 cells (human); assay: as above
[22] = biological target: WT H3.3 26-35 peptide/HLA-A*02:01 complex on T2 cells (human); assay: as above
[23] = biological target: mutant histone K27M-H3.1 26-35 peptide/HLA-A*02:01 complex on T2 cells (human); assay: as above
[24] = biological target: mutant histone K27M-H3.3 26-35 peptide/HLA-A*02:01 complex on T2 cells (human); assay: as above

BB7.2 (antibody)
Median MFI (PE-A) [1]: 8700 MFI | Median MFI (PE-A) [2]: 3600 MFI | Median MFI (PE-A) [3]: 11300 MFI | Median MFI (PE-A) [4]: 8650 MFI | Median MFI (PE-A) [5]: 9530 MFI | Median MFI (PE-A) [6]: 9650 MFI

R-PE conjugated horse anti-mouse IgG (antibody)
Median MFI (PE-A) [7]: 83 MFI | Median MFI (PE-A) [8]: 82 MFI | Median MFI (PE-A) [9]: 82 MFI | Median MFI (PE-A) [10]: 83 MFI | Median MFI (PE-A) [11]: 85 MFI | Median MFI (PE-A) [12]: 83 MFI

mouse anti-M13 mAb (antibody)
Median MFI (PE-A) [13]: 86 MFI | Median MFI (PE-A) [14]: 80 MFI | Median MFI (PE-A) [15]: 82 MFI | Median MFI (PE-A) [16]: 83 MFI | Median MFI (PE-A) [17]: 85 MFI | Median MFI (PE-A) [18]: 83 MFI

negative control phage
Median MFI (PE-A) [19]: 131 MFI | Median MFI (PE-A) [20]: 122 MFI | Median MFI (PE-A) [21]: 124 MFI | Median MFI (PE-A) [22]: 128 MFI | Median MFI (PE-A) [23]: 130 MFI | Median MFI (PE-A) [24]: 133 MFI
